In publication PMC5472717:
pKd: −log10 of the molar value.

How the values were obtained:
[1] = test system: Zur (zinc uptake regulator) (Streptomyces coelicolor A3(2) M145?); test: EMSA; settings: 5 uM ZnSO4; 20 mM Tris-HCl pH 7.8, 50 mM KCl, 1 mM DTT, 0.1 mg/ml BSA, 5% glycerol, 0.1 ug poly(dI-dC) per 20 ul, 0-20 uM ZnSO4, room temperature 20 min; gel 5% PAGE in TB …
[2] = target: Zur (zinc uptake regulator) of Streptomyces coelicolor (Streptomyces coelicolor); test: native gel or EMSA; EMSA of purified Zur (0-90 nM) on 32P-labelled znuA and zitB DNA probes (25, 33, 46, 114 bp) with 0-20 uM ZnSO4; 20 mM Tris-HCl pH 7.8, 50 mM KCl, 1 mM DTT, room temperature; the number of Zur chains in each shifted band was estimated from mobility on native PAGE at different acrylamide percentages; Zur oligomers seen only on DNA

stoichiometry N [2] | Substance | pKd [1]
– | GCACATGACAACGGTGTTCAGTGCC (double strand) [zitB 25 bp Zur-box probe (-63 to -39)] | 7.71
2 | Zur (zinc uptake regulator) of Streptomyces coelicolor (natural protein) | –
